These results are taken from article doi:10.1101/2021.10.11.463969.

The target in this test is Measles virus matrix protein (MeV-M) fused to a twin StrepII tag (Measles virus) (UniProt Q9W850). The experiment in a line: SEC-MALS. For orientation: Size exclusion chromatography separates by hydrodynamic size, large species first.

Consider “Measles virus matrix protein (MeV-M) fused to a twin StrepII tag (from UniProt Q9W850 1-335) (natural protein)”, for which the stoichiometry N turned out to be 2.

As usually defined, the stoichiometry N is the number of molecules, sites or subunits per partner or assembly.
